Experimental data published in US5851983A, “Elastase inhibitory polypeptide and process for production thereof by recombinant gene technology” (Teijin Limited, priority 1987, dated 1998).

Key:
[1] = biological target: T1, polymorphonuclear leucocyte elastase from human sputum (Homo sapiens, UniProt P08246); experiment: Treatment with polymorphonuclear leucocyte elastase from human sputum (Examples 27, 30); format: in vitro ADME; details: 37° C.
T1 construct: Polymorphonuclear leukocyte elastase from human sputum (EPC Co; Funakoshi Yakuhin); purchased EPC Co. (via Funakoshi Yakuhin); host or cells: human sputum
T1 sequence (P08246 30-267): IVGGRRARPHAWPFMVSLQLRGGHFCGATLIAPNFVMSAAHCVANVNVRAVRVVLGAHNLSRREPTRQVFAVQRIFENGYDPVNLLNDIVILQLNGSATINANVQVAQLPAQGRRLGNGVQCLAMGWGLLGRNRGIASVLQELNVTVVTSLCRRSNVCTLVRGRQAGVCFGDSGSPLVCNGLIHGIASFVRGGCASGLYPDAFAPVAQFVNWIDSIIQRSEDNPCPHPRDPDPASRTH
Experimental: Polymorphonuclear leucocyte elastase from human sputum (EPC, Funakoshi Yakuhin) and SLPI were separately dissolved in a buffer (0.1M HEPES, 0.1M NaCl, 0.1% PEG 6000, pH 7.5) and the elastase solution was added to the SLPI solution, and the mixture was incubated at 37° C. Samples were taken as time elapsed, and to each sample were added Tris-HCl buffer (pH 6.8), SDS, 2-mercaptolethanol, glycerol, and Coomassie Brilliant Blue to final concentrations of 50 mM, 4 w/v %, 2 v/v %, 12 v/v % and 0.01 w/v % respectively. The mixture was subjected to SDS-polyacrylamide gel electrophoresis using Tricine (Sigma) as a polar buffer (Schagger, H., Anal. Biochem. 166, 368, 1987). After the electrophoresis, the gel was stained with Coomassie Brilliant Blue G-250, and decoloured with 50% (v/v) methanol/10% (v/v) acetic acid.
(1) A result of a test, wherein elastase was added to 100 μM SLPI to an elastase final concentration of 200 μM, and the mixture was incubated at 37° C. up to 192 hours taking samples as time elapsed, is shown in FIG. 20. […]
(3) Next, polypeptides thus generated were electrically transferred to a membrane (Immobilon-p^SQ Millipore) using a Milli Blot-SDE apparatus (Millipore). […] After drying, relevant bands were cut out, and the peptide was cleaved from the N-terminal using an Applied Biosystems Protein-Sequencer (Applied Biosystems; 477A), and after PTH-conversion, the resulting amino acid derivatives were analyzed by a PTH-Amino acid analyzer (Applied Biosystems, 120A) to determine the N-terminal amino acid sequence.
According to the same procedure as described in Example 27, (Asn^55 -Ala^107) SLPI (final concentration 100 μM) was treated with elastase (final concentration 200 μM) at 37° C. for 48 hours. The sample was separated by SDS-PAGE, and electrically transferred to a filter as described in Example 27, a band corresponding to a molecular weight of about 5,500 was cut out, and an N-terminal amino acid sequence was analyzed.

Bovine spleen trypsin = biological target: T2, Bovine spleen trypsin (Bos taurus, UniProt P00760); experiment: Assay for trypsin inhibitor activity (Example 24); format: biochemical; details: enzyme 2 × 10^-7 M, substrate 1.0 × 10^-3 M
T2 construct: purchased Sigma
T2 sequence (P00760 24-246): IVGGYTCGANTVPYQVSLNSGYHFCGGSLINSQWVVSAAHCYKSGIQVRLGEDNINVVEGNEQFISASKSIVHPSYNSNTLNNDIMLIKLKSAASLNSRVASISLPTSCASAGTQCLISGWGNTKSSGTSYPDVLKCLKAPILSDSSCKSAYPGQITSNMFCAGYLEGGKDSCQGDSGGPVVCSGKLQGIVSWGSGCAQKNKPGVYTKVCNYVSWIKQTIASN
Experimental: The following assay method was used.
Buffer: 0.1M (2-hydroxyethyl)piperazine-N'-2-ethansulfonic acid (HEPES), 0.5M NaCl, pH 7.5.
Enzyme concentration: the following enzyme was dissolved in the above-mentioned buffer to a concentration 9 times that shown in Table 12.
B. Bovine spleen trypsin (Sigma)
Substrate solution: for the enzymes A, B, C, D and E, the following substrate a, b, c, d or e, respectively, was dissolved in a solution of DMSO+the above-mentioned buffer (1:9) (note, final concentration of DMSO was 10% in the buffer) to a concentration of 9 times that shown in Table 12. […]
To wells of an ELISA 96-well microtiter plate, were added 120 μl of the buffer and the 20 μl of a sample solution of (Arg^59 -Ala^107) SLPI obtained in Example 23, followed by 20 μl of the enzyme solution. The mixture was reacted at 37° C. for 10 minutes. Next, 20 μl of the substrate was added, and developed at 37° C. The developed color was measured by absorption at 405 nm.
As a control the same procedure was carried out using SLPI.

Human plasma plasmin = biological target: T3, Human plasma plasmin (Homo sapiens, UniProt P00747); experiment: Assay for plasmin inhibitory activity (Example 25); format: biochemical; details: final concentration up to ×10^-5 M; enzyme 1.0 × 10^-7 M
T3 construct: (6) Human plasma plasmin (Kabi, Daiichi Kagaku Yakuhin); purchased Kabi (via Daiichi Kagaku Yakuhin); host or cells: human plasma
T3 sequence (P00747 581-810 limits assumed): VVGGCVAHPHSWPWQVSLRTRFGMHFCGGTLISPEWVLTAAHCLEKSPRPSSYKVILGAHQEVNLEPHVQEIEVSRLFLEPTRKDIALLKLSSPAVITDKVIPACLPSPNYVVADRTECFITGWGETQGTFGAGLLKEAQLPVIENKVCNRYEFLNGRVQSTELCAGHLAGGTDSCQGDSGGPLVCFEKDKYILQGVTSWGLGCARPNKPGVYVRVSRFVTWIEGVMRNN
T3 sequence (P00747 97-580 partner limits assumed): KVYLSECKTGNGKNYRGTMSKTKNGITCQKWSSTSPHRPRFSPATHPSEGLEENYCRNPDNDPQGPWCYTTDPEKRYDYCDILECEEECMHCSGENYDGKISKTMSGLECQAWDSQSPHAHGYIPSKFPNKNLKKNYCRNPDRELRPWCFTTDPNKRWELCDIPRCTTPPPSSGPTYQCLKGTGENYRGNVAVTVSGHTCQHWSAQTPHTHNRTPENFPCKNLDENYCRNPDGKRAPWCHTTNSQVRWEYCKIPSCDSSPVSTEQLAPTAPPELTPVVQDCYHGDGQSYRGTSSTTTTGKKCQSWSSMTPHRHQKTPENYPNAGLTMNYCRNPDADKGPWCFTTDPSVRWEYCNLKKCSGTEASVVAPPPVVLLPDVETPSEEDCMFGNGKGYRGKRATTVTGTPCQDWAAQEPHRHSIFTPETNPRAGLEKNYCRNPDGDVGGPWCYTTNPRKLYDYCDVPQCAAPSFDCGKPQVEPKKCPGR
Experimental: G. Human plasma plasmin (sigma)
Plasmin: 50 mM Tris-HCl, 100 mM NaCl (pH 7.4) […]
(§1) Substrate solution: for the enzymes F, G, H and I, the following substrate f, g, h or i, respectively, was dissolved to a final concentration shown in Table 14.
g. H.D-Val-Leu-Lys-pNA (Kabi Vitrum)
(§2) To wells of an ELISA 96-well microtiter plate, were added a solution of (Arg^59 -Ala^107) SLPI obtained in Example 23 and then the enzyme solution, and the mixture was incubated at 37° C. for 10 minutes. Next, the substrate solution was added to develop the color, whose absorption was then measured at 405 nm. As a control, SLPI was used.

Porcine FXa = experiment: Assay for Fxa inhibitory activity (Example 25); format: biochemical; details: final concentration up to ×10^-5 M; enzyme 1.0 × 10^-8 M
Experimental: I. Porcine FXa (Daichi Seiyaku)
Buffer: Buffer solution for each enzyme is as follow. Thrombin and FXa: 50 mM Tris-HCl, 7.5 mM EDTA-2Na, 175 mM NaCl (pH 8.4) […]
as §1
i. Ratio 1:1 mixture of the following compounds: [drawing 5]
as §2

B1: SLPI: Human secretory leukoprotease inhibitor; recombinant SLPI of Reference Example 1 used as control (protein)
chain: SGKSFKAGVCPPKKSAQCLRYKKPECQSDWQCPGKKRCCPDTCGIKCLDPVDTPNPTRRKPGKCPVTYGQCLMLNPPNFCEMDGQCKRDLKCCMGMCGKSCVSPVKA
Question: B1 was tested. Which “SDS-PAGE band of SLPI on treatment with elastase” value ([1]; 50 μM SLPI, not less than 100 μM elastase, one hour) did it give?
Answer: Its value is “disappeared significantly”.

Question: And the “SDS-PAGE band of SLPI on treatment with elastase” value ([1]; 100 μM SLPI, 200 μM elastase)?
Answer: The value was “rapidly disappeared after 45 minute incubation”.

Question: What about the “selective cleavage sites with elastase from human sputum” value ([1]; N-terminal sequencing of SDS-PAGE bands) of the same molecule?
Answer: The value was “between Ser^15 -Ala^16, and Thr^57 -Arg^58”.

Question: What about the IC50 (Bovine spleen trypsin) of the same molecule?
Answer: The IC50 was 330 nM.

Question: What about the “inhibitory activity to plasmin” value (Human plasma plasmin) of the same molecule?
Answer: Its value is “did not exhibit inhibitory activity”.

Question: What about the “inhibitory activity to FXa” value (Porcine FXa) of the same molecule?
Answer: Its value is “did not exhibit inhibitory activity”.
